The values that follow come from patent US20050232917 (published 2005).

Where a chain is given by its changes, count along the chain named. Read-outs that look alike come from different tables or passages of the source.

Broadly, the IC50 is the concentration at which inhibition is half-maximal. Read a high IC50 as a need for much substance. One may read the Kd as the free concentration of one partner at which half of the binding sites on the other are occupied at equilibrium, for simple one-to-one binding.

Assay [1] has as its target T1, human MAdCAM (on CHO cells) (human, UniProt Q13477).
T1 chain: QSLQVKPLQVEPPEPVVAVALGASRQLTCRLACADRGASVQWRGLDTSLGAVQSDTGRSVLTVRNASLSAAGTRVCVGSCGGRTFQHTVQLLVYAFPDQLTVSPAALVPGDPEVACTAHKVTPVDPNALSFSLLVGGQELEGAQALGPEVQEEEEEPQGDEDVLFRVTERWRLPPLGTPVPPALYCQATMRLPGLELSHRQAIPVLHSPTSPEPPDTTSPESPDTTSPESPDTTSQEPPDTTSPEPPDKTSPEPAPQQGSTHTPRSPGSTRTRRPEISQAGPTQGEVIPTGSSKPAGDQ
The assay can be described thus: competition, JY cell adhesion to CHO.

For assay [2], the target named is T2, cynomolgus/human MAdCAM chimera (on CHO cells) (cynomolgus/human).
T2 chain: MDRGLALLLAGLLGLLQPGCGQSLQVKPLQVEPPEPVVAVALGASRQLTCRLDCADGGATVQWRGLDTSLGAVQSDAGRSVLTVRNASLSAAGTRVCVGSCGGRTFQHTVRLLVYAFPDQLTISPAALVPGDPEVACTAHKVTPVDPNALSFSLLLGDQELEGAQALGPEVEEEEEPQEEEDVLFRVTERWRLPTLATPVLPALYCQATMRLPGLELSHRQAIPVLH
The assay is described as follows: competition, JY cell adhesion to CHO.

The target in assay [3] is MAdCAM-IgG1 Fc fusion (human). The assay is described as follows: SPR, protocol 1.
Chain of MAdCAM-IgG1 Fc fusion (human) (chain, as listed by the source): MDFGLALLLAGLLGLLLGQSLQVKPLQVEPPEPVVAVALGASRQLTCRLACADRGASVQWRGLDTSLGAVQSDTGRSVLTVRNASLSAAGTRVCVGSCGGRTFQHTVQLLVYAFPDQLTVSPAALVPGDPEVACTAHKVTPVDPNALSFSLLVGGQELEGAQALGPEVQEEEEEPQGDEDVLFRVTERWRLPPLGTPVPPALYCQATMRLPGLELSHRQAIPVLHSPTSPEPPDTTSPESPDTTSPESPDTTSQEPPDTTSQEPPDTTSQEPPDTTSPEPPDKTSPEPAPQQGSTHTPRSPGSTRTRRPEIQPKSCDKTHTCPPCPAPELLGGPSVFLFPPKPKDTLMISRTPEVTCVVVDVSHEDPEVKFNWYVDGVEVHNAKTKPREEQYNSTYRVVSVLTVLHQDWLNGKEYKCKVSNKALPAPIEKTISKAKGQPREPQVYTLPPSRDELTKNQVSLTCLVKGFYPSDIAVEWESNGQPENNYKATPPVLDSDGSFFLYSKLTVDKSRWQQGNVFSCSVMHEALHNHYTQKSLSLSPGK
Assay [4] concerns the target MAdCAM-IgG1 Fc fusion (human). The assay can be described thus: SPR, protocol 2. A general note: In SPR one partner is held on a chip, and binding of the other changes the refractive index at the surface.
Assay [5] has as its target MAdCAM-IgG1 Fc fusion (human). The assay is described as follows: competition, JY cell adhesion.
In assay [6] the target is T3, mouse MAdCAM (mouse, UniProt Q61826).
T3 chain: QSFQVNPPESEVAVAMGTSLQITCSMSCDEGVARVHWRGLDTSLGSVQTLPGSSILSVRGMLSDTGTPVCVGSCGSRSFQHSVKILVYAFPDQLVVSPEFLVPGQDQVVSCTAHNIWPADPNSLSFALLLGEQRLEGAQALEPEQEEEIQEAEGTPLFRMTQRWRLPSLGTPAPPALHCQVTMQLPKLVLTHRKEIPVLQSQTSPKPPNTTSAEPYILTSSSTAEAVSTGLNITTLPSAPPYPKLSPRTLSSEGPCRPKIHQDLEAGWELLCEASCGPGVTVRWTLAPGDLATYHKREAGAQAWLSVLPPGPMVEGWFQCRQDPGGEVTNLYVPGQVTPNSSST
The assay can be described thus: ELISA.

In assay [7] the target is MAdCAM-IgG1 Fc fusion (human). The assay is described as follows: competition, JY cell adhesion. The source holds these as a separate data set.
Assay [8] deals with T2, cynomolgus/human MAdCAM chimera (on CHO …). The assay can be described thus: FACS. Background: In flow cytometry, cells or beads pass a laser one at a time.

B1: 7.26.4 (antibody, V domains shown)
VH: QVQLVQSGAEVKKPGASVKVSCEASGYTFTSYGIDWVRQAPGQGLEWMGWISVYSGNTNYAQKLQGRVTMSTDTSTSTAYMELRSLRSDDTAVYYCAREGSSSSGDYYYGMDVWGQGTTVTVSS
VL: DIVMTQTPLSLSVTPGQPASISCKSNQSLLYSDGKTYLFWYLQKPGQPPQLLIYEVSNRFSGVPDRFSGSGSGTDFTLKISRVEAEDVGVYYCMQSIQLPWTFGQGTKVEIKR
As to B1, the IC50 turned out to be 0.574 µg/mL in assay [1] and 0.96 µg/mL in assay [2].

B2: 6.77.1 (antibody, V domains shown)
VH: EVQLVESGGGLVKPGGSLRLSCAASGFTFSSYSMNWVRQAPGKGLEWVSSISSSSSYIYYADSVKGRFTISRDNAKNSLYLQMNSLRAEDTAVYYCARDGYSSGWSYYYYYGMDVWGQGTTVTVSS
VL: B1 VL with K24N, N26S, Y31L, F39N, Y92S, P100M, W101C, T102S, V109L
Molecule B2 gave a Kd in assay [3] of 0.0067 nM. Also, the IC50 in assay [1] was 0.52 µg/mL; in assay [2], 0.64 µg/mL.

B3: 7.16.6 (antibody, V domains shown)
VH: B1 VH with E23K, D35N, L64V, S71T, T72A, E82D
VL: B1 VL with N26S, Y31H, S32T, K35T, F39Y, V90I, S96N
For B3, the Kd in assay [3] stood at 0.0015 nM; in assay [4] it was 0.0048 nM. Moreover, the results for the IC50 in assay [5] and in assay [2] were 0.019 µg/mL and 0.72 µg/mL, respectively.

B4: 1.8.2 (antibody, V domains shown)
VH: EVQLVESGGGLVKPGGSLRLSCVVSGFTFTNAWMIWVRQAPGKGLEWVGRIKRKTDGGTTDYAAPVKGRFTISRDDSKNTLYLQMNSLKTEDTAVYYCTTGGVAEDYWGQGTLVTVSS
VL: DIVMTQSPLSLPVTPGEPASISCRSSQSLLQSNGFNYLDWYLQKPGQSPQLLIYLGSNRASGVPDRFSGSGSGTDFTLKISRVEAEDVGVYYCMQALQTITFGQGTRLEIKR
Regarding B4, the affinity in assay [3], expressed as Kd, was 0.035 nM. Further, the IC50 in assay [5] came out at 0.027 µg/mL; in assay [1], 0.424 µg/mL.

B5: 1.7.2 (antibody, V domains shown)
VH: B4 VH with V24A
VL: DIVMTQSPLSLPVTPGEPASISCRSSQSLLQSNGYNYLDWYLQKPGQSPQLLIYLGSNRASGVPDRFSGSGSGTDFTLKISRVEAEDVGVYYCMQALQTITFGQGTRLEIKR
Turning to B5, binding in assay [3] was characterised by a dissociation constant (Kd) of 0.042 nM. The figures for the IC50 in assay [5] and in assay [1] were 0.03 µg/mL and 0.502 µg/mL, respectively.

B6: 6.14.2 (antibody, V domains shown)
VH: EVQLLESGGGLVQPGGSLRLSCAASGLTFNNSAMTWVRQAPGKGLEWVSTTSGSGGTTYYADSVKGRFTISRDSPKNTLYLQMNSLRAEDTAVYYCAARGYSYGTTPYEYWGQGTLVTVSS
VL: MDMRVPAQLLGLLLLWLRGARCDIQMTQSPSSLSASVGDRVTITCRASRSISSYLNWYQQKPGKAPKVLIFFVSSLQSGVPSRFSGSGSGTDFTLTISSLQPEDFATYYCQQNYIPPITFGQGTRLEIRR
Regarding B6, the binding result in assay [6] was “no binding”. In addition, the Kd in assay [3] is 0.0077 nM; in assay [4] it was less than 0.01 nM. Further, the figures for the IC50 in assay [5], in assay [1] and in assay [2] were 0.011 µg/mL, 0.291 µg/mL and 0.53 µg/mL, respectively.

B7: 9.8.2 (antibody, V domains shown)
VH: QVQLVESGGGVVQPGRSLRLSCAASGFTFSSYGMHWVRQAPGKGLEWVAVIWYDGSNEYYADSVKGRFTISRDNSKNTLYLQMNSLRAEDTAVYYCARGAYHFAYWGQGTLVTVSS
VL: DMRVPAQLLGLLLLWLSVAGARCDIQMTQSPSSLSASVGDRVTITCQASQDISNYLNWYQQKPGKAPKLLIYDASNLETGVPSRFSGSGSGTDFTFTISSLQPEDIATYSCQHSDNLSITFGQGTRLEIKR
Regarding B7, the binding result in assay [6] was “no binding”. Besides, the Kd was found to be 0.1 nM in assay [3] and 0.0325 nM in assay [4]. The IC50 in assay [5] was 0.02 µg/mL; in assay [1], 0.44 µg/mL; in assay [2] it was 0.83 µg/mL.

B8: 6.22.2 (antibody, V domains shown)
VH: QVQLVESGGGVVQPGRSLRLSCAASGHTFSSDGMHWVRQAPGKGLEWVAIIWYDGSNKYYADSVKGRFTISRDNSKNTLYLQMNSLRAEDTAVYYCARDPGYYYGMDVWGQGTTVTVSS
VL: EIVLTQSPDFQSVTPKEKVTITCRASQRIGSSLHWYQQKPDQSPKLLIKYASQSFSGVPSRFSGSGSGTNFTLTINGLEAEDAATYYCHQSGRLPLTFGGGTKVEIKR
As for B8, the figures for the 50% inhibitory concentration (IC50) in assay [1] and in assay [2] were 0.573 µg/mL and 0.83 µg/mL, respectively.

B9: 6.67.1 (antibody, V domains shown)
VH: QVQLQESGPGLVKPSETLSLTCTVSGDSISSNYWSWIRQPAGKGLEWIGRIYTSGGTNSNPSLRGRVTILADTSKNQFSLKLSSVTAADTAVYYCARDRITIIRGLIPSFFDYWGQGTLVTVSS
VL: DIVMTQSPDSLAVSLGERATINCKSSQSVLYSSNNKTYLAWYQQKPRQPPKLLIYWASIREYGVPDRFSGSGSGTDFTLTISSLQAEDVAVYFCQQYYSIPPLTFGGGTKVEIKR
Take B9: the results for the IC50 in assay [1] and in assay [2] were 0.298 µg/mL and 0.75 µg/mL, respectively.

B10: 7.20.5 (antibody, V domains shown)
VH: QVQLQESGPGLVKPSETLSLTCTVSGSSISSYHWNWIRQPAGKGLEWIGRIYTSGSTNYNPSLKSRVTMSLDTSKNQFSLKLSSVTAADTAVYYCAREGVRYYYASGSYYYGLDVWGQGTTVTVSS
VL: not shown
B10: the half-inhibitory concentration (IC50) in assay [1] worked out at 0.387 µg/mL; in assay [2], 0.62 µg/mL.

B11: 6.34.2 (antibody, V domains shown)
VH: QVQLVESGGGVVQPGRSLRLSCAASGFTFSSYGMHWVRQAPGKGLEWVAVISNDGNNKYYADSVKGRFTISRDNSKNTLYLQMNSLSAEDTAVYYCARDSTAITYYYYGMDVWGQGTTVTVSS
VL: MDMRVPAQLLGLLLLWLRGARCDIQMTQSPSSLSASVGDRVTITCRASQNISSYLNWFQQKPGKAPKLLIYAASGLKRGVPSRFSGSGSGTDFTLTIRTLQPDDFATYSCHQSYSLPFTFGPGTKVDIKR
On to B11, for which the binding result in assay [6] was “no binding”. Also, the Kd was 0.0158 nM in assay [3] and less than 0.015 nM in assay [4]. For the same molecule, the IC50 in assay [7] was determined as 0.013 µg/mL; in assay [5], 0.013 µg/mL; in assay [1], 0.285 µg/mL; in assay [2] it was 0.47 µg/mL.

B12: 6.34.2-mod (antibody, V domains shown)
VH: B11 VH with S87R
VL: B11 VL with N50S, F58Y, R98S, T99S, D103E, S109Y
B12: the IC50 in assay [7] was 0.049 µg/mL.

B13: 6.73.2 (antibody, V domains shown)
VH: EVQLLESGGDLVQPGGSLRLSCAASGFTFRSYAMNWVRQAPGKGLEWVSVISGRGGTTYYADSVKGRFTISRDNSKNTLYLQMNSLRAEDAAVYYCAKIAVAGEGLYYYYGMDVWGQGTTVTVSS
VL: MDMRVPAQLLGLLLLWLRGARCDIQMTQSPSSLSASVGDRVTFTCRASQNITNYLNWYQQKPGKAPKLLIYAASSLPRGVPSRFRGSGSGTDFTLTISSLQPEDFATYYCQQSYSNPPECGFGQGTTLDIKR
On to B13, for which the binding result in assay [8] and in assay [6] was “no binding” in each case. Further, in assay [3], binding was characterised by a dissociation constant (Kd) of 0.093 nM. The IC50 in assay [5] came to 0.02 µg/mL; in assay [1] it was 0.369 µg/mL.
